Results from article PMC3904827, “Segmental Helical Motions and Dynamical Asymmetry Modulate Histidine Kinase Autophosphorylation” (PLoS Biology, 2014).
Changes are numbered by the printed parent chain.

B1: full cytoplasmic region of E. coli CpxA (CpxAHDC), wild type (domain or fragment, Escherichia coli, UniProt P0AE82 188-457, looked up)
chain: KPARKLKNAADEVAQGNLRQHPELEAGPQEFLAAGASFNQMVTALERMMTSQQRLLSDISHELRTPLTRLQLGTALLRRRSGESKELERIETEAQRLDSMINDLLVMSRNQQKNALVSETIKANQLWSEVLDNAAFEAEQMGKSLTVNFPPGPWPLYGNPNALESALENIVRNALRYSHTKIEVGFAVDKDGITITVDDDGPGVSPEDREQIFRPFYRTDEARDRESGGTGLGLAIVETAIQQHRGWVKAEDSPLGGLRLVIWLPLYKRS
notes: Sensor histidine kinase CpxA, Escherichia coli, full cytoplasmic region: HAMP domain (residues 188-237) and DHp and CA domains (residues 238-457); The trigonal (4BIV) and hexagonal (4CB0) crystals were grown from seleno-methionyl protein; Crystallised with ADP or ATP; also called CpxA transmitter core; wild-type CpxAHDC; source: SeMet protein from E. coli B834 (DE3)
B2: point mutant CpxA_(HDC_M228V) of the full cytoplasmic region of E. coli CpxA (domain or fragment, Escherichia coli, UniProt P0AE82 188-457, looked up)
chain: B1 chain with M41V
notes: Sensor histidine kinase CpxA, Escherichia coli, full cytoplasmic region (HAMP 188-237, DHp and CA 238-457) with the point mutation Met228-Val in the HAMP domain; Probably made like wild-type CpxAHDC (His-tagged, pET28a+, E. coli, IMAC and gel filtration), but the methods describe only the CpxAHDC construct; Crystallised with AMPPNP or ADP; also called CpxAHDC Met228-Val; source: purified protein

What was measured:
[1] = molecular target: the molecule itself; assay: crystal structure; dimers to tetramer (dimer of dimers) as seen in the hexagonal and monoclinic crystal forms; vapor diffusion at 18°C, protein at ~15 mg/ml
[2] = molecular target: the molecule itself; assay: crystal structure; monomers to homodimer; vapor diffusion at 18°C, protein at ~15 mg/ml, in complex with nucleotides; five crystal forms (C222_(1), P3_(1)21, P6_(1)22, C2, I2)

Protein | stoichiometry N [1] | stoichiometry N [2]
B1 | 4 | 2
B2 | 4 | 2
